Data on two molecules can be found in article PMC4871701, “Release of GTP Exchange Factor Mediated Down-Regulation of Abscisic Acid Signal Transduction through ABA-Induced Rapid Degradation of RopGEFs” (PLoS Biology, 2016).

The target of the assay is T1, GST-GEF1 (Arabidopsis thaliana, UniProt Q93ZY2 1-548).
T1 construct: RopGEF1 (GEF1), Arabidopsis thaliana; also called GST-tagged GEF1; GST-RopGEF1; source: E. coli Rosetta (DE3) pLysS, purified (Glutathione Sepharose); not shown: GST, N-terminal, kept
T1 sequence (looked up): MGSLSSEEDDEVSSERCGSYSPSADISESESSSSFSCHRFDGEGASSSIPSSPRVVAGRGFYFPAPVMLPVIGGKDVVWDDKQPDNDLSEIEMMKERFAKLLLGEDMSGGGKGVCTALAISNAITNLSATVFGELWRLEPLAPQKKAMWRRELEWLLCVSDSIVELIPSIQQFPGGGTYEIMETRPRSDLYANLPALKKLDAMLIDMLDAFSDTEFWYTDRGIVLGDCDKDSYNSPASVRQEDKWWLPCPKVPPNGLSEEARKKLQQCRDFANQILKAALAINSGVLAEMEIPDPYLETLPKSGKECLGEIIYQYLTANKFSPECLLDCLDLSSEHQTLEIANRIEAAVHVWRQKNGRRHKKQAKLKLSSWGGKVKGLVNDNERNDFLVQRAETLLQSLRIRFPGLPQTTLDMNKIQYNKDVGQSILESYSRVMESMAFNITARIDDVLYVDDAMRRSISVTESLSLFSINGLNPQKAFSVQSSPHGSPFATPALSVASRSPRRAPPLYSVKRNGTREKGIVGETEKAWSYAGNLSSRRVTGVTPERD
Description: pull-down; GST-GEF1 on Glutathione Sepharose beads as bait, StrepII-tagged input proteins; bound proteins detected by blot for Strep-II. The conditions noted are these: both partners purified.

B1: StrepII-ABI1 (enzyme, Arabidopsis thaliana, UniProt P49597 1-434, looked up)
chain: MEEVSPAIAGPFRPFSETQMDFTGIRLGKGYCNNQYSNQDSENGDLMVSLPETSSCSVSGSHGSESRKVLISRINSPNLNMKESAAADIVVVDISAGDEINGSDITSEKKMISRTESRSLFEFKSVPLYGFTSICGRRPEMEDAVSTIPRFLQSSSGSMLDGRFDPQSAAHFFGVYDGHGGSQVANYCRERMHLALAEEIAKEKPMLCDGDTWLEKWKKALFNSFLRVDSEIESVAPETVGSTSVVAVVFPSHIFVANCGDSRAVLCRGKTALPLSVDHKPDREDEAARIEAAGGKVIQWNGARVFGVLAMSRSIGDRYLKPSIIPDPEVTAVKRVKEDDCLILASDGVWDVMTDEEACEMARKRILLWHKKNAVAGDASLLADERRKEGKDPAAMSAAEYLSKLAIQRGSKDNISVVVVDLKPRRKLKSKPLN
notes: ABI1, type 2C protein phosphatase, Arabidopsis thaliana; also called Strep-II tagged ABI1; source: E. coli Rosetta (DE3) pLysS, purified (Strep-Tactin resin); not shown: Strep-II, N-terminal, kept
For B1, the binding result is listed as “binds”.

B2: StrepII-ROP11 (natural protein)
chain: not shown
notes: ROP11, ROP/RAC small GTPase, Arabidopsis thaliana; also called Strep-II tagged ROP11; source: E. coli Rosetta (DE3) pLysS, purified (Strep-Tactin resin); not shown: Strep-II, N-terminal, kept
Regarding B2, the binding result is “binds”.
